Laboratory results taken from the supplement of paper PMC10567573.

B1: ZNF263 (parent)
chain: PEASHLRFRRFRFQEAAGPREALS

Variants of: B1
Test: protein stability index of a GFP-peptide fusion (GPS, HEK-293T) (PSI 1-6); higher = more stable
Conditions: c terminus: a fixed tail appended
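Note: lentivirally expressed fusions sorted by FACS into six bins by GFP to DsRed ratio, PSI derived from sequencing read proportions per bin multiplied by bin number.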

In order of rising protein stability index:
1. PEASHLRFRRFRFHEAAGPREALS  1.16
2. PEASHLRFRVFRFQEAAGPREALS  1.26
3. PEASHLRFRRFRFQFAAGPREALS  1.53
4. PEASHLRFRRFRFQEFAGPREALS  1.59
5. PEASHLRFWRFRFQEAAGPREALS  1.62
6. PEASHYRFRRFRFQEAAGPREALS  1.66
7. PEASHLRFIRFRFQEAAGPREALS  1.69
8. PEASHLRFRRFRFQIAAGPREALS  1.78
9. PEASHLRFRRFRFIEAAGPREALS  1.78
10. PEASHLRFRFFRFQEAAGPREALS  1.79
11. PEASHLIFRRFRFQEAAGPREALS  1.8
12. PEASHLRFRRFCFQEAAGPREALS  1.81
13. PEASHLRFRRFRFAEAAGPREALS  1.81
14. PEASHLRFRIFRFQEAAGPREALS  1.86
15. PEASHLRFRRFRFCEAAGPREALS  1.89
16. PEASHLRFRYFRFQEAAGPREALS  1.91
17. PEASHLRWRRFRFQEAAGPREALS  1.94
18. PEASHLRFYRFRFQEAAGPREALS  1.96
19. PEASHLRFRRFRFQRAAGPREALS  1.98
20. PEASHLRFHRFRFQEAAGPREALS  1.98
21. PEASHLRFRRFRFQLAAGPREALS  2.02
22. PEASHLRFRRFRFQHAAGPREALS  2.04
23. PEASHLRFRRFRFQKAAGPREALS  2.04
24. PEASHLRFRRFRFQYAAGPREALS  2.05
25. PEASHLLFRRFRFQEAAGPREALS  2.08
26. PEASHLRFRRFRFQDAAGPREALS  2.09
27. PEASHLRFRRFRFQEYAGPREALS  2.1
28. PEASHLRFRPFRFQEAAGPREALS  2.11
29. PEASHLRFRRFRFQETAGPREALS  2.11
30. PEASHLRFRRFRFQVAAGPREALS  2.12
31. PEASHLRFRRFRFQEACGPREALS  2.14
32. PEASHLRFRRFRFQWAAGPREALS  2.15
33. PEASHLRFRRFRFQEMAGPREALS  2.15
34. PEASHLRFRAFRFQEAAGPREALS  2.18
35. PEASHLRFRRFFFQEAAGPREALS  2.19
36. PEASHLRFRRFRFQECAGPREALS  2.19
37. PEASHLRFVRFRFQEAAGPREALS  2.21
38. PEASHLRFERFRFQEAAGPREALS  2.21
39. PEASHLRFRRFRFQGAAGPREALS  2.24
40. PEASHLRFRRFRFYEAAGPREALS  2.26
41. PEASHLRFRHFRFQEAAGPREALS  2.27
42. PEASHLRFRCFRFQEAAGPREALS  2.28
43. PEASHLFFRRFRFQEAAGPREALS  2.28
44. PEASHLRFFRFRFQEAAGPREALS  2.29
45. PEASHLRFRRFRYQEAAGPREALS  2.3
46. PEASHLRFRRFRFQCAAGPREALS  2.31
47. PEASHLRFRRFRFQEVAGPREALS  2.31
48. PEASHLRFRRFRFQPAAGPREALS  2.32
49. PEASHLRFRRFIFQEAAGPREALS  2.33
50. PEASHLRFRNFRFQEAAGPREALS  2.35
51. PEASHLPFRRFRFQEAAGPREALS  2.35
52. PEASHLRFRRFRFQEEAGPREALS  2.36
53. PEASHLYFRRFRFQEAAGPREALS  2.36
54. PEASHWRFRRFRFQEAAGPREALS  2.37
55. PEASHLRFRRFRFQMAAGPREALS  2.38
56. PEASHLRFRRFYFQEAAGPREALS  2.4
57. PEASHLRFRRFRFQEGAGPREALS  2.43
58. PEASHLRFCRFRFQEAAGPREALS  2.44
59. PEASHLRFRRCRFQEAAGPREALS  2.45
60. PEASHLRFRLFRFQEAAGPREALS  2.49
61. PEASHLRFRRFRFVEAAGPREALS  2.5
62. PEASHLCFRRFRFQEAAGPREALS  2.5
63. PEASHLRFRRFRFQSAAGPREALS  2.54
64. PEASHLRFRRFWFQEAAGPREALS  2.56
65. PEASHLRFRRFRFQELAGPREALS  2.57
66. PEASHLRFRRFRFREAAGPREALS  2.59
67. PEASHLRFRRFRFQEKAGPREALS  2.61
68. PEASHLRFRGFRFQEAAGPREALS  2.62
69. PEASHLRFRKFRFQEAAGPREALS  2.65
70. PEASHLRFRRFRFQEWAGPREALS  2.65
71. PEASHLRFRRFRLQEAAGPREALS  2.65
72. PEASHLVFRRFRFQEAAGPREALS  2.65
73. PEASHLRFRRLRFQEAAGPREALS  2.66
74. PEASHLRFRRWRFQEAAGPREALS  2.67
75. PEASHLRFREFRFQEAAGPREALS  2.68
76. PEASHLRFRRFRFQNAAGPREALS  2.68
77. PEASHLSFRRFRFQEAAGPREALS  2.68
78. PEASHLRCRRFRFQEAAGPREALS  2.69
79. PEASHLRFDRFRFQEAAGPREALS  2.69
80. PEASHLRFRRFRFQENAGPREALS  2.69
81. PEASHLRFRSFRFQEAAGPREALS  2.72
82. PEASHLRFRRFRFQAAAGPREALS  2.73
83. PEASHLRFRRFRFQTAAGPREALS  2.74
84. PEASHLRFRRFRCQEAAGPREALS  2.75
85. PEASHLQFRRFRFQEAAGPREALS  2.75
86. PEASHLRYRRFRFQEAAGPREALS  2.76
87. PEASHLRFRRYRFQEAAGPREALS  2.76
88. PEASHLRFMRFRFQEAAGPREALS  2.78
89. PEASHLDFRRFRFQEAAGPREALS  2.78
90. PEASHLRMRRFRFQEAAGPREALS  2.8
91. PEASHLRFLRFRFQEAAGPREALS  2.8
92. PEASHLRFKRFRFQEAAGPREALS  2.82
93. PEASHLRLRRFRFQEAAGPREALS  2.84
94. PEASHLMFRRFRFQEAAGPREALS  2.84
95. PEASHLRFRRFRFQEIAGPREALS  2.85
96. PEASHLRFRRFRFSEAAGPREALS  2.87
97. PEASHLRFRRFRFWEAAGPREALS  2.87
98. PEASHLRFRRFRFTEAAGPREALS  2.88
99. PEASHLRFRRFRFQERAGPREALS  2.88
100. PEASHLKFRRFRFQEAAGPREALS  2.92
101. PEASHLRFRTFRFQEAAGPREALS  2.93
102. PEASHLRFRRFRFMEAAGPREALS  2.93
103. PEASHLHFRRFRFQEAAGPREALS  2.93
104. PEASHLRFRRFLFQEAAGPREALS  2.99
105. PEASHLRFRRFRFQEDAGPREALS  2.99
106. PEASHLRFRRFRFNEAAGPREALS  3
107. PEASHLRFRRFRFQEHAGPREALS  3
108. PEASHLRPRRFRFQEAAGPREALS  3.04
109. PEASHLRVRRFRFQEAAGPREALS  3.06
110. PEASHLRFRQFRFQEAAGPREALS  3.07
111. PEASHLRDRRFRFQEAAGPREALS  3.08
112. PEASHLRFNRFRFQEAAGPREALS  3.08
113. PEASHLNFRRFRFQEAAGPREALS  3.08
114. PEASHLRFRRIRFQEAAGPREALS  3.1
115. PEASHLRFRMFRFQEAAGPREALS  3.12
116. PEASHLRFRRFHFQEAAGPREALS  3.14
117. PEASHLAFRRFRFQEAAGPREALS  3.14
118. PEASHLRFARFRFQEAAGPREALS  3.18
119. PEASHLRSRRFRFQEAAGPREALS  3.21
120. PEASHLRFRRFRFLEAAGPREALS  3.22
121. PEASHLRFRWFRFQEAAGPREALS  3.23
122. PEASHLRHRRFRFQEAAGPREALS  3.23
123. PEASHLRFRRFRFEEAAGPREALS  3.23
124. PEASHLRFRRFRFQEPAGPREALS  3.25
125. PEASHLRFRRARFQEAAGPREALS  3.25
126. PEASHLEFRRFRFQEAAGPREALS  3.26
127. PEASHLRFRRFGFQEAAGPREALS  3.28
128. PEASHLRARRFRFQEAAGPREALS  3.28
129. PEASHLRFRRFRIQEAAGPREALS  3.28
130. PEASHLRFRDFRFQEAAGPREALS  3.29
131. PEASHLRGRRFRFQEAAGPREALS  3.29
132. PEASHLRKRRFRFQEAAGPREALS  3.29
133. PEASHLRFRRFRFPEAAGPREALS  3.29
134. PEASHLRFRRFAFQEAAGPREALS  3.32
135. PEASHLRFTRFRFQEAAGPREALS  3.32
136. PEASHLRFRRFRFQEAEGPREALS  3.34
137. PEASHLRFRRFRFKEAAGPREALS  3.34
138. PEASHVRFRRFRFQEAAGPREALS  3.36
139. PEASHLRFGRFRFQEAAGPREALS  3.36
140. PEASHLRFRRFPFQEAAGPREALS  3.39
141. PEASHLRTRRFRFQEAAGPREALS  3.4
142. PEASHLRFRRFRFQEADGPREALS  3.42
143. PEASHLRIRRFRFQEAAGPREALS  3.43
144. PEASHLRFQRFRFQEAAGPREALS  3.44
145. PEASHLGFRRFRFQEAAGPREALS  3.45
146. PEASHLRFRRFMFQEAAGPREALS  3.46
147. PEASHLRNRRFRFQEAAGPREALS  3.46
148. PEASHLRFRRSRFQEAAGPREALS  3.53
149. PEASHLRFRRFRFQESAGPREALS  3.54
150. PEASHLRRRRFRFQEAAGPREALS  3.55
151. PEASHLRFRRFRRQEAAGPREALS  3.56
152. PEASHLRFRRFRWQEAAGPREALS  3.58
153. PEASHLRFRRFTFQEAAGPREALS  3.59
154. PEASHLRFRRFRMQEAAGPREALS  3.59
155. PEASHLRFRRFVFQEAAGPREALS  3.61
156. PEASHLRFRRFRVQEAAGPREALS  3.61
157. PEASHLRFRRMRFQEAAGPREALS  3.61
158. PEASHLWFRRFRFQEAAGPREALS  3.63
159. PEASHLRFRRFKFQEAAGPREALS  3.64
160. PEASHLTFRRFRFQEAAGPREALS  3.66
161. PEASHLRFRRDRFQEAAGPREALS  3.66
162. PEASHLRFRRFRFGEAAGPREALS  3.68
163. PEASHLRFRRFNFQEAAGPREALS  3.77
164. PEASHLRFSRFRFQEAAGPREALS  3.8
165. PEASHLRFRRFRNQEAAGPREALS  3.8
166. PEASHLRFRRKRFQEAAGPREALS  3.85
167. PEASHLRFRRFREQEAAGPREALS  3.86
168. PEASHLRFRRGRFQEAAGPREALS  3.89
169. PEASHLRFRRFRPQEAAGPREALS  3.9
170. PEASHLRFRRFDFQEAAGPREALS  3.93
171. PEASHLRFRRFRAQEAAGPREALS  3.97
172. PEASHLRERRFRFQEAAGPREALS  3.98
173. PEASHLRFRRFRSQEAAGPREALS  4.01
174. PEASHLRFRRHRFQEAAGPREALS  4.01
175. PEASHLRFRRFSFQEAAGPREALS  4.05
176. PEASHLRFRRFRKQEAAGPREALS  4.07
177. PEASHLRFRRQRFQEAAGPREALS  4.13
178. PEASHLRFRRFRTQEAAGPREALS  4.15
179. PEASHLRFRRTRFQEAAGPREALS  4.16
180. PEASHLRFRRFRGQEAAGPREALS  4.17
181. PEASHLRFRRFRQQEAAGPREALS  4.18
182. PEASHLRFRRNRFQEAAGPREALS  4.33
183. PEASHLRFRRFQFQEAAGPREALS  4.36
184. PEASHLRFRRPRFQEAAGPREALS  4.66
185. PEASHLRFRRFRDQEAAGPREALS  4.81
186. PEASHLRFRRFRFDEAAGPREALS  4.9
187. PEASHLRFRRRRFQEAAGPREALS  4.91
188. PEASHLRFRRFEFQEAAGPREALS  5.03
